The values below come from patent publication US20220315554A1, “COMPOUNDS COMPRISING A […] LIGAND AND USE THEREOF” (priority 2019, published 2022).

The target of assay [1] is T1, Ubiquitin carboxy-terminal hydrolase 2 (Homo sapiens (Human)) (UniProt O75604).
T1 sequence: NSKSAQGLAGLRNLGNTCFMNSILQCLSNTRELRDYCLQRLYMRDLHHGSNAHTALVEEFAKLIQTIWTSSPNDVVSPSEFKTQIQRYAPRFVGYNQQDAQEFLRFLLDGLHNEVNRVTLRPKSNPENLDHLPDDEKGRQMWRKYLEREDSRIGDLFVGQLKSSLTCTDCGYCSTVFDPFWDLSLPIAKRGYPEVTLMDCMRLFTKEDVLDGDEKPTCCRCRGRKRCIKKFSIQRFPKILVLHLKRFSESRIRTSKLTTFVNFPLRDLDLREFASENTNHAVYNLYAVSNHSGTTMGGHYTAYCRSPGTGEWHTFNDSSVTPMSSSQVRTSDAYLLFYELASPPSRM

The target of assay [2] is Ubiquitin carboxy-terminal hydrolase 10 (Homo sapiens (Human)) (UniProt Q14694).
For assay [3], the target named is Ubiquitin carboxy-terminal hydrolase 14 (Homo sapiens (Human)) (UniProt P54578).
The target of assay [4] is Ubiquitin carboxy-terminal hydrolase L1 (Homo sapiens (Human)) (UniProt P09936).
Assay [5] has as its target T2, A20 (Homo sapiens (Human)) (UniProt P21580).
T2 sequence: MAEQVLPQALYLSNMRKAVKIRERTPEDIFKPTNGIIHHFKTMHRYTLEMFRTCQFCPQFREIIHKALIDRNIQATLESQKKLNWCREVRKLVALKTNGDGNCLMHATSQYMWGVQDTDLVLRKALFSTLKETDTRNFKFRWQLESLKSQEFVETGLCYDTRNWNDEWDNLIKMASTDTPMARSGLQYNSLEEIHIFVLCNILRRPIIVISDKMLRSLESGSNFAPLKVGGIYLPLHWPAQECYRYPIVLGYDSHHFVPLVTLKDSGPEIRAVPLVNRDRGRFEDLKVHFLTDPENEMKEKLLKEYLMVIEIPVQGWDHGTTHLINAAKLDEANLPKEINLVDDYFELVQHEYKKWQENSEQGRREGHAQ

The target of assay [6] is T3, Cathepsin F (Homo sapiens (Human)) (UniProt Q9UBX1).
T3 sequence: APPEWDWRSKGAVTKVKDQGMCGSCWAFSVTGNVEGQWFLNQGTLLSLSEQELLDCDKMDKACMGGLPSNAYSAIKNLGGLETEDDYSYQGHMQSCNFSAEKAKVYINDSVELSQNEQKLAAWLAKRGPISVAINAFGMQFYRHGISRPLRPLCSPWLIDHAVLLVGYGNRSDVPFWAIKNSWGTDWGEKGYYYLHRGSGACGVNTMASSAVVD

Assay [7] addresses T4, Caspase-6 (Homo sapiens (Human)) (UniProt P55212).
T4 sequence: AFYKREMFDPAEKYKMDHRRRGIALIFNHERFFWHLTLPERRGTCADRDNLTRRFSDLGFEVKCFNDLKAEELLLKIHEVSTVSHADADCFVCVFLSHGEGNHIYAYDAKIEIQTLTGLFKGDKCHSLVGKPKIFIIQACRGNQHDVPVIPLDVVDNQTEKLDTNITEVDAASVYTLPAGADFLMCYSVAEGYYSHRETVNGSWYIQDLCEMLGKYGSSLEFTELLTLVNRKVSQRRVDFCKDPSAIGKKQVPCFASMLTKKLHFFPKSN

Assay [8] deals with T5, Caspase-3 (Homo sapiens (Human)) (UniProt P42574).
T5 sequence: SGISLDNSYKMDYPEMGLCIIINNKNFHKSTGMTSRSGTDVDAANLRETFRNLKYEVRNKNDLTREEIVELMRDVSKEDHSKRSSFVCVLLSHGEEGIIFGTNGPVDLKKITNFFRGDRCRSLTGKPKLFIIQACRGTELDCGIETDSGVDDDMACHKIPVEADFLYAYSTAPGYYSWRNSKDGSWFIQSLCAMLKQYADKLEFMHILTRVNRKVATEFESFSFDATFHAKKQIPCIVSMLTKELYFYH

Assay [9] deals with Matrix metalloprotease 9 (mutant Q279R) (Homo sapiens (Human)) (UniProt P14780).
Assay [10] has as its target Ubiquitin carboxy-terminal hydrolase 8 (Homo sapiens (Human)) (UniProt P40818).
The target of assay [11] is T6, Ubiquitin carboxy-terminal hydrolase L3 (Homo sapiens (Human)) (UniProt P15374).
T6 sequence: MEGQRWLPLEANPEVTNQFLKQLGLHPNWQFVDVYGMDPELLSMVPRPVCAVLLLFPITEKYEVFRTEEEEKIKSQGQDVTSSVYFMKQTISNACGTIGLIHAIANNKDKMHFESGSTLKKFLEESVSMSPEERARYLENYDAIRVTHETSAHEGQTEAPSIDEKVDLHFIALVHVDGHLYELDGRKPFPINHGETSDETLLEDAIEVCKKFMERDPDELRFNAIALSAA

Assay [12] has as its target DPP9 (Homo sapiens (Human)) (UniProt Q86TI2).
The target in assay [13] is Cathepsin L (Homo sapiens (Human)) (UniProt P07711).
Assay [14] addresses DPP8 (Homo sapiens (Human)) (UniProt Q6V1X1).
The target of assay [15] is T7, Deubiquitinase OTUD6B (Homo sapiens (Human)) (UniProt Q8N6M0).
T7 sequence: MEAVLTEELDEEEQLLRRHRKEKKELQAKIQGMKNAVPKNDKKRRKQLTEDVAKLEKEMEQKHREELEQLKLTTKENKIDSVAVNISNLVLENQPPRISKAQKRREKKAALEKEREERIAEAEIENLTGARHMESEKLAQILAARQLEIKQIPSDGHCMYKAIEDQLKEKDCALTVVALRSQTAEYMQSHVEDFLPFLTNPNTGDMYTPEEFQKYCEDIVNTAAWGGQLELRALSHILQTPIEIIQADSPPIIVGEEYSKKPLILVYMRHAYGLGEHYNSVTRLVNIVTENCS

Assay [16] addresses T8, Renin (Homo sapiens (Human)) (UniProt P00797).
T8 sequence: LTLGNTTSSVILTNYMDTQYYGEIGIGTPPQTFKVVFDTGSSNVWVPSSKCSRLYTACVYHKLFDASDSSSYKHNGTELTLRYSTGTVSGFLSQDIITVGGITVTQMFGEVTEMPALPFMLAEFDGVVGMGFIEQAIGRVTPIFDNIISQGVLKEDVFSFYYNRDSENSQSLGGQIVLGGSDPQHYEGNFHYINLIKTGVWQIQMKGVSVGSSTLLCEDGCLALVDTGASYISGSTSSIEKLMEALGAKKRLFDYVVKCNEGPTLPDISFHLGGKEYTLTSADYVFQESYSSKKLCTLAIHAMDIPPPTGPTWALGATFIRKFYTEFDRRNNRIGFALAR

For assay [17], the target named is Ataxin3 (Homo sapiens (Human)) (UniProt P54252).
Assay [18] addresses Cathepsin B (Homo sapiens (Human)) (UniProt P07858).

Chain of Ataxin3 (Homo sapiens (Human)) (P54252 whole entry): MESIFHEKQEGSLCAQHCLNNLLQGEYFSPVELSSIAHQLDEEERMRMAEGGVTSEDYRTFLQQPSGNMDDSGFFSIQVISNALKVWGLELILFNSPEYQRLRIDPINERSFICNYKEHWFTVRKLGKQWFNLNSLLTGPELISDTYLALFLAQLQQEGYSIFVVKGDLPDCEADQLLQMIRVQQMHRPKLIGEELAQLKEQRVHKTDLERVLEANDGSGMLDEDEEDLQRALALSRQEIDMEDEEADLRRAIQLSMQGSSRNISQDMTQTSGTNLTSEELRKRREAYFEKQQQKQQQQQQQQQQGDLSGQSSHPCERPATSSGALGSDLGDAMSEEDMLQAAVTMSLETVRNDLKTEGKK
Chain of Ubiquitin carboxy-terminal hydrolase 10 (Homo sapiens (Human)) (Q14694 whole entry): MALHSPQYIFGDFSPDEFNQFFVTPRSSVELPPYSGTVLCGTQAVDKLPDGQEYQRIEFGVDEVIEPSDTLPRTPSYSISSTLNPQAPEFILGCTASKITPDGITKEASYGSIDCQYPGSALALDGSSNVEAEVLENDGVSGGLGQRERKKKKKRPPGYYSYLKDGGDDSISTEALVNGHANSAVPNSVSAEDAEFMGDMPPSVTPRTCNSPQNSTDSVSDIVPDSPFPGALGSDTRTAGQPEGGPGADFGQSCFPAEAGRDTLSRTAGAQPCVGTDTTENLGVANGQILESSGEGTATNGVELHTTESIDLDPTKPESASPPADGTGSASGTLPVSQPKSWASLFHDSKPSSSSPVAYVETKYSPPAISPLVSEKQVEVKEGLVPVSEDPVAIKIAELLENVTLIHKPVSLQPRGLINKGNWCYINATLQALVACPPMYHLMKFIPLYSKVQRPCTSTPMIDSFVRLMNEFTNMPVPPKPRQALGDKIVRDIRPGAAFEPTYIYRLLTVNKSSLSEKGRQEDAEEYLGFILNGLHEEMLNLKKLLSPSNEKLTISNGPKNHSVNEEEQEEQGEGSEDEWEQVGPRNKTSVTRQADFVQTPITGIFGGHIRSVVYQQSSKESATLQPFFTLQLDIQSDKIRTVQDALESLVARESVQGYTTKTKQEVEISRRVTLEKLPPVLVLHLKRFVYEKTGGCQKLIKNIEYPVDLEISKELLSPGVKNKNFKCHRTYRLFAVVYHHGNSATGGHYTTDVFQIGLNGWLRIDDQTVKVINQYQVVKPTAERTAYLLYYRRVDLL

For “Hex-[Cys(tMeBn(DOTA-PP))-Pro-Pro-Thr-Gln-Phe-Cys]-Asp-NH2 (peptide)”, the Percentage inhibition (%) at 10 µM in assay [1] is 7%; in [2], 5%; in [3] it was 5%; in assay [4] it was 4%; in assay [5] it was -4%; in assay [6], -24%. For the same substance, the Percentage inhibition (%) at 10 µM was -1% in assay [7]; -2% in assay [8]; 2% in [9]; 6% in assay [10]; 14% in assay [11]; 0% in assay [12]. For the same substance, the Percentage inhibition (%) at 10 µM is 6% in assay [13]; 5% in assay [14]; 15% in assay [15]; 3% in [16]; 10% in assay [17]; 36% in assay [18].
As for “Hex-[Cys(tMeBn(DOTA-AET))-Pro-Pro-Thr-Gln-Phe-Cys]-OH (peptide)”, the Percentage inhibition (%) at 10 µM is -1% in assay [1]; -1% in [2]; 2% in assay [3]; 4% in assay [4]; 0% in assay [5]; -25% in [6]. Also, the Percentage inhibition (%) at 10 µM in assay [7] is -3%; in assay [8] it was -1%; in assay [9], 2%; in assay [10], 1%; in assay [11], 0%; in [12] it was -5%. Moreover, the Percentage inhibition (%) at 10 µM in assay [13] is -6%; in assay [14], 11%; in assay [15], 0%; in assay [16], -1%; in [17], -1%; in assay [18], 2%.
